Target: FGFR4 (human) (UniProt P22455)
Experiment: ELISA; also printed 0.001 ug/mL

Sequence of FGFR4 (human) (P22455 22-369): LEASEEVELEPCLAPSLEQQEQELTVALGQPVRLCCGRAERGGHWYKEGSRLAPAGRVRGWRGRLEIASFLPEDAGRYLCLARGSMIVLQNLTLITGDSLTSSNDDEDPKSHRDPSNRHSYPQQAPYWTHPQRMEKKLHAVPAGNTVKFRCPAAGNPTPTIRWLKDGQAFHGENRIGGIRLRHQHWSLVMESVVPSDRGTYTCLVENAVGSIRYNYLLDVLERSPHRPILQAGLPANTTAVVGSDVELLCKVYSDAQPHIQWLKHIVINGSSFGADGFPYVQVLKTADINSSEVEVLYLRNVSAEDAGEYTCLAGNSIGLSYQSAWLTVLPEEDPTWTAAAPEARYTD

## ab41948
  Kd: 0.07 nM

Source: patent US20210230280A1
